Data from US20250051446A1 (OSE IMMUNOTHERAPEUTICS, published 2025).

Biological target: T1, human CD28 on peripheral blood CD3+ T lymphocytes (human, UniProt P10747 19-220)
T1 construct: whole, on cells; Target of the receptor occupancy flow cytometry assay on blood T cells of study subjects; also called CD28 receptor
Experiment: Kd recalculated in the PK/target engagement model from receptor occupancy observed by flow cytometry in humans (cohort A); not a direct in vitro measurement

Kd: ~0.3 nM
B1: FR104, humanized pegylated monovalent anti-CD28 Fab' antibody fragment (Fab, V domains shown)
VH: QVQLQQSGAELKKPGASVKVSCKASGYTFTEYIIHWIKLRSGQGLEWIGWFYPGSNDIQYNAQFKGKATLTADKSSSTVYMELTGLTPEDSAVYFCARRDDFSGYDALPYWGQGTLVTVSA
VL: DIQMTQSPSSLSASVGDRVTITCKTNENIYSNLAWYQQKDGKSPQLLIYAATHLVEGVPSRFSGSGSGTQYSLTISSLQPEDFGNYYCQHFWGTPCTFGGGTKLEIKR
modifications: pegylated at its C-terminus: bi-branched 2x20 kDa PEG linked to the C-terminal cysteine via a maleimide ring
notes: also called FR104-PEG; anti-CD28.3 Fab
